Assay results taken from patent US20240261333A1, “NOVEL TARGETS FOR ENHANCING ANTI-TUMOR IMMUNITY” (THE BROAD INSTITUTE, INC., priority 2021, published 2024).

Target: T1, B3GNT2 (Homo sapiens, UniProt Q9NY97)
T1 construct: The respective ORFs of candidate genes [CD274 (NM_014143), MCL1 (NM_021960), JUNB (NM_002229), and B3GNT2 (NM_006577)] were synthesized; expressed in transfected cells; host or cells: A375 melanoma cells (lentiviral ORF overexpression)
T1 sequence (Q9NY97 1-397): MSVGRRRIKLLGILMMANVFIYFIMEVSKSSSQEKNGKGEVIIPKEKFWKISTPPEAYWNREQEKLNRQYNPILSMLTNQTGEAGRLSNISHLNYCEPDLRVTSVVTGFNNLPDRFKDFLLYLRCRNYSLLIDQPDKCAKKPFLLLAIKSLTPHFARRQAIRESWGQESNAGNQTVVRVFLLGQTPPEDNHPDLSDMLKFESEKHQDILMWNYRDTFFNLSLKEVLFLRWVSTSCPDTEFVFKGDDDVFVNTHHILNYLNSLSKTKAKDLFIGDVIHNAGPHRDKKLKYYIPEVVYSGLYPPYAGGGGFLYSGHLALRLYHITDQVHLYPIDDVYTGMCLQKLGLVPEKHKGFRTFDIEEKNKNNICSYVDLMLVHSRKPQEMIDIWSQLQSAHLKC
Experiment: Co-IP of FLAG-tagged B3GNT2 followed by mass spectrometry
Format: cell-based
Parameters: C-term IgG / C-term flag: unit not given here
Details: mass spectrometry count, unit not given; for C-term flag / N-term FLAG: Co-IP with FLAG antibody; for C-term flag / C-term IgG: C-terminally FLAG-tagged B3GNT2; for N-term FLAG / N-term IgG: N-terminally FLAG-tagged B3GNT2; for C-term IgG / N-term IgG: Co-IP with IgG control antibody
In short: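 FLAG-tagged B3GNT2 immunoprecipitated from cell lysate (HEPES, 1% Triton X-100, 150 mM NaCl) with anti-FLAG versus […], overnight at 4° C, then captured on Protein A/G magnetic beads for 4 h. Two biological replicates per condition. Peptides fractionated and analyzed by nano-LC on an Orbitrap Elite in data-dependent mode.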

B1: ATAD3A (protein)
chain: SWLFGINKGPKGEGAGPPPPLPPAQPGAEGGGDRGLGDRPAPKDKWSNFDPTGLERAAKAARELEHSRYAKDALNLAQMQEQTLQLEQQSKLKEYEAAVEQLKSEQIRAQAEERRKTLSEETRQHQARAQYQDKLARQRYEDQLKQQQLLNEENLRKQEESVQKQEAMRRATVEREMELRHKNEMLRVEAEARARAKAERENADIIREQIRLKAAEHRQTVLESIRTAGTLFGEGFRAFVTDWDKVTATVAGLTLLAVGVYSAKNATLVAGRFIEARLGKPSLVRETSRITVLEALRHPIQVSRRLLSRPQDALEGVVLSPSLEARVRDIAIATRNTKKNRSLYRNILMYGPPGTGKTLFAKKLALHSGMDYAIMTGGDVAPMGREGVTAMHKLFDWANTSRRGLLLFVDEADAFLRKRATEKISEDLRATLNAFLYRTGQHSNKFMLVLASNQPEQFDWAINDRINEMVHFDLPGQEERERLVRMYFDKYVLKPATEGKQRLKLAQFDYGRKCSEVARLTEGMSGREIAQLAVSWQATAYASEDGVLTEAMMDTRVQDAVQQHQQKMCWLKAEGPGRGDEPSPS
  C-term flag: 9
  N-term FLAG: 0
  C-term IgG: 0
  N-term IgG: 0

B2: UBTF (protein)
chain: MNGEADCPTDLEMAAPKGQDRWSQEDMLTLLECMKNNLPSNDSSKFKTTESHMDWEKVAFKDFSGDMCKLKWVEISNEVRKFRTLTELILDAQEHVKNPYKGKKLKKHPDFPKKPLTPYFRFFMEKRAKYAKLHPEMSNLDLTKILSKKYKELPEKKKMKYIQDFQREKQEFERNLARFREDHPDLIQNAKKSDIPEKPKTPQQLWYTHEKKVYLKVRPDEIMRDYIQKHPELNISEEGITKSTLTKAERQLKDKFDGRPTKPPPNSYSLYCAELMANMKDVPSTERMVLCSQQWKLLSQKEKDAYHKKCDQKKKDYEVELLRFLESLPEEEQQRVLGEEKMLNINKKQATSPASKKPAQEGGKGGSEKPKRPVSAMFIFSEEKRRQLQEERPELSESELTRLLARMWNDLSEKKKAKYKAREAALKAQSERKPGGEREERGKLPESPKRAEEIWQQSVIGDYLARFKNDRVKALKAMEMTWNNMEKKEKLMWIKKAAEDQKRYERELSEMRAPPAATNSSKKMKFQGEPKKPPMNGYQKFSQELLSNGELNHLPLKERMVEIGSRWQRISQSQKEHYKKLAEEQQKQYKVHLDLWVKSLSPQDRAAYKEYISNKRKSMTKLRGPNPKSSRTTLQSKSESEEDDEEDEDDEDEDEEEEDDENGDSSEDGGDSSESSSEDESEDGDENEEDDEDEDDDEDDDEDEDNESEGSSSSSSSSGDSSDSDSN
  C-term flag: 2
  N-term FLAG: 0
  C-term IgG: 0
  N-term IgG: 0

B3: PDIA4 (protein)
chain: VAGAEGPDEDSSNRENAIEDEEEEEEEDDDEEEDDLEVKEENGVLVLNDANFDNFVADKDTVLLEFYAPWCGHCKQFAPEYEKIANILKDKDPPIPVAKIDATSASVLASRFDVSGYPTIKILKKGQAVDYEGSRTQEEIVAKVREVSQPDWTPPPEVTLVLTKENFDEVVNDADIILVEFYAPWCGHCKKLAPEYEKAAKELSKRSPPIPLAKVDATAETDLAKRFDVSGYPTLKIFRKGRPYDYNGPREKYGIVDYMIEQSGPPSKEILTLKQVQEFLKDGDDVIIIGVFKGESDPAYQQYQDAANNLREDYKFHHTFSTEIAKFLKVSQGQLVVMQPEKFQSKYEPRSHMMDVQGSTQDSAIKDFVLKYALPLVGHRKVSNDAKRYTRRPLVVVYYSVDFSFDYRAATQFWRSKVLEVAKDFPEYTFAIADEEDYAGEVKDLGLSESGEDVNAAILDESGKKFAMEPEEFDSDTLREFVTAFKKGKLKPVIKSQPVPKNNKGPVKVVVGKTFDSIVMDPKKDVLIEFYAPWCGHCKQLEPVYNSLAKKYKGQKGLVIAKMDATANDVPSDRYKVEGFPTIYFAPSGDKKNPVKFEGGDRDLEHLSKFIEEHATKLSRTKEEL
  C-term flag: 9
  N-term FLAG: 0
  C-term IgG: 0
  N-term IgG: 0

B4: RRBP1 (protein)
chain: MDIYDTQTLGVVVFGGFMVVSAIGIFLVSTFSMKETSYEEALANQRKEMAKTHHQKVEKKKKEKTVEKKGKTKKKEEKPNGKIPDHDPAPNVTVLLREPVRAPAVAVAPTPVQPPIIVAPVATVPAMPQEKLASSPKDKKKKEKKVAKVEPAVSSVVNSIQVLTSKAAILETAPKEVPMVVVPPVGAKGNTPATGTTQGKKAEGTQNQSKKAEGAPNQGRKAEGTPNQGKKTEGTPNQGKKAEGTPNQGKKAEGTPNQGKKAEGAQNQGKKVDTTPNQGKKVEGAPTQGRKAEGAQNQAKKVEGAQNQGKKAEGAQNQGKKGEGAQNQGKKAEGAQNQGKKAEGAQNQGKKAEGAQNQGKKAEGAQNQGKKAEGAQNQGKKAEGAQNQGKKVEGAQNQGKKAEGAQNQGKKAEGAQNQGKKAEGAQNQGKKAEGAQNQGKKAEGAQNQGKKAEGAQNQGKKAEGAQNQGKKVEGAQNQGKKAEGAQNQGKKAEGAQNQGKKAEGAQNQGQKGEGAQNQGKKTEGAQGKKAERSPNQGKKGEGAPIQGKKADSVANQGTKVEGITNQGKKAEGSPSEGKKAEGSPNQGKKADAAANQGKKTESASVQGRNTDVAQSPEAPKQEAPAKKKSGSKKKGEPGPPDADGPLYLPYKTLVSTVGSMVFNEGEAQRLIEILSEKAGIIQDTWHKATQKGDPVAILKRQLEEKEKLLATEQEDAAVAKSKLRELNKEMAAEKAKAAAGEAKVKKQLVAREQEITAVQARMQASYREHVKEVQQLQGKIRTLQEQLENGPNTQLARLQQENSILRDALNQATSQVESKQNAELAKLRQELSKVSKELVEKSEAVRQDEQQRKALEAKAAAFEKQVLQLQASHRESEEALQKRLDEVSRELCHTQSSHASLRADAEKAQEQQQQMAELHSKLQSSEAEVRSKCEELSGLHGQLQEARAENSQLTERIRSIEALLEAGQARDAQDVQASQAEADQQQTRLKELESQVSGLEKEAIELREAVEQQKVKNNDLREKNWKAMEALATAEQACKEKLLSLTQAKEESEKQLCLIEAQTMEALLALLPELSVLAQQNYTEWLQDLKEKGPTLLKHPPAPAEPSSDLASKLREAEETQSTLQAECDQYRSILAETEGMLRDLQKSVEEEEQVWRAKVGAAEEELQKSRVTVKHLEEIVEKLKGELESSDQVREHTSHLEAELEKHMAAASAECQNYAKEVAGLRQLLLESQSQLDAAKSEAQKQSDELALVRQQLSEMKSHVEDGDIAGAPASSPEAPPAEQDPVQLKTQLEWTEAILEDEQTQRQKLTAEFEEAQTSACRLQEELEKLRTAGPLESSETEEASQLKERLEKEKKLTSDLGRAATRLQELLKTTQEQLAREKDTVKKLQEQLEKAEDGSSSKEGTSV
  C-term flag: 16
  N-term FLAG: 2
  C-term IgG: 2
  N-term IgG: 0

B5: KTN1 (protein)
chain: MEFYESAYFIVLIPSIVITVIFLFFWLFMKETLYDEVLAKQKREQKLIPTKTDKKKAEKKKNKKKEIQNGNLHESDSESVPRDFKLSDALAVEDDQVAPVPLNVVETSSSVRERKKKEKKQKPVLEEQVIKESDASKIPGKKVEPVPVTKQPTPPSEAAASKKKPGQKKSKNGSDDQDKKVETLMVPSKRQEALPLHQETKQESGSGKKKASSKKQKTENVFVDEPLIHATTYIPLMDNADSSPVVDKREVIDLLKPDQVEGIQKSGTKKLKTETDKENAEVKFKDFLLSLKTMMFSEDEALCVVDLLKEKSGVIQDALKKSSKGELTTLIHQLQEKDKLLAAVKEDAAATKDRCKQLTQEMMTEKERSNVVITRMKDRIGTLEKEHNVFQNKIHVSYQETQQMQMKFQQVREQMEAEIAHLKQENGILRDAVSNTTNQLESKQSAELNKLRQDYARLVNELTEKTGKLQQEEVQKKNAEQAATQLKVQLQEAERRWEEVQSYIRKRTAEHEAAQQDLQSKFVAKENEVQSLHSKLTDTLVSKQQLEQRLMQLMESEQKRVNKEESLQMQVQDILEQNEALKAQIQQFHSQIAAQTSASVLAEELHKVIAEKDKQIKQTEDSLASERDRLTSKEEELKDIQNMNFLLKAEVQKLQALANEQAAAAHELEKMQQSVYVKDDKIRLLEEQLQHEISNKMEEFKILNDQNKALKSEVQKLQTLVSEQPNKDVVEQMEKCIQEKDEKLKTVEELLETGLIQVATKEEELNAIRTENSSLTKEVQDLKAKQNDQVSFASLVEELKKVIHEKDGKIKSVEELLEAELLKVANKEKTVQDLKQEIKALKEEIGNVQLEKAQQLSITSKVQELQNLLKGKEEQMNTMKAVLEEKEKDLANTGKWLQDLQEENESLKAHVQEVAQHNLKEASSASQFEELEIVLKEKENELKRLEAMLKERESDLSSKTQLLQDVQDENKLFKSQIEQLKQQNYQQASSFPPHEELLKVISEREKEISGLWNELDSLKDAVEHQRKKNNDLREKNWEAMEALASTEKMLQDKVNKTSKERQQQVEAVELEAKEVLKKLFPKVSVPSNLSYGEWLHGFEKKAKECMAGTSGSEEVKVLEHKLKEADEMHTLLQLECEKYKSVLAETEGILQKLQRSVEQEENKWKVKVDESHKTIKQMQSSFTSSEQELERLRSENKDIENLRREREHLEMELEKAEMERSTYVTEVRELKDLLTELQKKLDDSYSEAVRQNEELNLLKAQLNETLTKLRTEQNERQKVAGDLHKAQQSLELIQSKIVKAAGDTTVIENSDVSPETESSEKETMSVSLNQTVTQLQQLLQAVNQQLTKEKEHYQVLE
  C-term flag: 2
  N-term FLAG: 0
  C-term IgG: 0
  N-term IgG: 0

B6: ERP44 (protein)
chain: EITSLDTENIDEILNNADVALVNFYADWCRFSQMLHPIFEEASDVIKEEFPNENQVVFARVDCDQHSDIAQRYRISKYPTLKLFRNGMMMKREYRGQRSVKALADYIRQQKSDPIQEIRDLAEITTLDRSKRNIIGYFEQKDSDNYRVFERVANILHDDCAFLSAFGDVSKPERYSGDNIIYKPPGHSAPDMVYLGAMTNFDVTYNWIQDKCVPLVREITFENGEELTEEGLPFLILFHMKEDTESLEIFQNEVARQLISEKGTINFLHADCDKFRHPLLHIQKTPADCPVIAIDSFRHMYVFGDFKDVLIPGKLKQFVFDLHSGKLHREFHHGPDPTDTAPGEQAQDVASSPPESSFQKLAPSEYRYTLLRDRDEL
  C-term flag: 2
  N-term FLAG: 0
  C-term IgG: 0
  N-term IgG: 0
